From patent US20180273642A1 (EMERGENT PRODUCT DEVELOPMENT SEATTLE, published 2018)

B1: 2E12 (anti-CD28) scFv (scFv)
scFv: QVQLKESGPGSVAPSQSLSITCTVSGFSLTGYGVNWVRQPPGKGLEWLGMIWGDGSTDYNSALKSRLSITKDNSKSQVFLKMNSLQTDDTARYYCARDGYSNFHYYVMDYWGQGTSVTVSSGGGGSGGGGSGGGGSGGGGSDIVLTQSPASLAVSLGQRATISCRASESVEYYVTSLMQWYQQKPGQPPKLLISAASNVESGVPARFSGSGSGTDFSLNIHPVEEDDIAMYFCQQSRKVPWTFGGGTKLEIK
notes: also called 2E12 scFv
B2: bispecific polypeptide heterodimer TSC020 (anti-CD19 and anti-CD3) (bispecific antibody)
chain 1: DIVLTQSPASLAVSLGQRATISCKASQSVDYDGDSYLNWYQQIPGQPPKLLIYDASNLVSGIPPRFSGSGSGTDFTLNIHPVEKVDAATYHCQQSTEDPWTFGGGTKLEIKGGGGSGGGGSGGGGASQVQLQQSGAELVRPGSSVKISCKASGYAFSSYWMNWVKQRPGQGLEWIGQIWPGDGDTNYNGKFKGKATLTADESSSTAYMQLSSLASEDSAVYFCARRETTTVGRYYYAMDYWGQGTSVTVSSSEPKSSDKTHTCPPCPSGAPELLGGPSVFLFPPKPKDTLMISRTPEVTCVVVDVSHEDPEVKFNWYVDGVEVHNAKTKPREEQYNSTYRVVSVLTVLHQDWLNGKEYKCKVSNKALPAPIEKTISKAKGQPREPQVYTLPPSRDELTKNQVSLTCLVKGFYPSDIAVEWESNGQPENNYKTTPPVLDSDGSFFLYSKLTVDKSRWQQGNVFSCSVMHEALHNHYTQKSLSLSPGKSRASTKGPSVFPLAPSSKSTSGGTAALGCLVKDYFPEPVTVSWNSGALTSGVHTFPAVLQSSGLYSLSSVVTVPSSSLGTQTYICNVNHKPSNTKVDKKV
chain 2: EVQLQQSGPELVKPGASMKISCKASGYSFTGYIVNWLKQSHGKNLEWIGLINPYKGLTTYNQKFKGKATLTVDKSSSTAYMELLSLTSEDSAVYYCARSGYYGDSDWYFDVWGAGTTVTVSSGGGGSGGGGSGGGGSAQDIQMTQTTSSLSASLGDRVTISCRASQDIRNYLNWYQQKPDGTVKLLIYYTSRLHSGVPSRFSGSGSGTDYSLTIANLQPEDIATYFCQQGNTLPWTFGGGTKLVTKRSSEPKSSDKTHTCPPCPSGAPELLGGPSVFLFPPKPKDTLMISRTPEVTCVVVDVSHEDPEVKFNWYVDGVEVHNAKTKPREEQYNSTYRVVSVLTVLHQDWLNGKEYKCKVSNKALPAPIEKTISKAKGQPREPQVYTLPPSRDELTKNQVSLTCLVKGFYPSDIAVEWESNGQPENNYKTTPPVLDSDGSFFLYSKLTVDKSRWQQGNVFSCSVMHEALHNHYTQKSLSLSPGKSRTVAAPSVFIFPPSDEQLKSGTASVVCLLNYFYPREAKVQWKVDNALQSGNSQESATEQDSKDSTYSLSSELTLSKADYEKHKVYACEVTHQGLSSPVTKSFNRGE
notes: HD37 (anti-CD19) scFv and G19-4 (anti-CD3) scFv; also called CD19×αCD3; TSC001 + TSC019
B3: bispecific (CD20, CD3) polypeptide heterodimer TSC021 (bispecific antibody)
chain 1: QIVLSQSPAILSASPGEKVTMTCRASSSVSYMHWYQQKPGSSPKPWIYAPSNLASGVPARFSGSGSGTSYSLTISRVEAEDAATYYCQQWSFNPPTFGAGTKLELKDGGGSGGGGSGGGGASQAYLQQSGAESVRPGASVKMSCKASGYTFTSYNMHWVKQTPRQGLEWIGAIYPGNGDTSYNQKFKGKATLTVDKSSSTAYMQLSSLTSEDSAVYFCARVVYYSNSYWYFDVWGTGTTVTVSSSEPKSSDKTHTCPPCPSGAPELLGGPSVFLFPPKPKDTLMISRTPEVTCVVVDVSHEDPEVKFNWYVDGVEVHNAKTKPREEQYNSTYRVVSVLTVLHQDWLNGKEYKCKVSNKALPAPIEKTISKAKGQPREPQVYTLPPSRDELTKNQVSLTCLVKGFYPSDIAVEWESNGQPENNYKTTPPVLDSDGSFFLYSKLTVDKSRWQQGNVFSCSVMHEALHNHYTQKSLSLSPGKSRASTKGPSVFPLAPSSKSTSGGTAALGCLVKDYFPEPVTVSWNSGALTSGVHTFPAVLQSSGLYSLSSVVTVPSSSLGTQTYICNVNHKPSNTKVDKKV
chain 2: B2 chain 2
notes: 2H7 (anti-CD20) scFv and G19-4 (anti-CD3) scFv; also called αCD20×αCD3; TSC002 + TSC019
B4: monovalent anti-CD28 polypeptide heterodimer X0124 (Fc fusion)
chain 1: QVQLKESGPGSVAPSQSLSITCTVSGFSLTGYGVNWVRQPPGKGLEWLGMIWGDGSTDYNSALKSRLSITKDNSKSQVFLKMNSLQTDDTARYYCARDGYSNFHYYVMDYWGQGTSVTVSSGGGGSGGGGSGGGGSGGGGSDIVLTQSPASLAVSLGQRATISCRASESVEYYVTSLMQWYQQKPGQPPKLLISAASNVESGVPARFSGSGSGTDFSLNIHPVEEDDIAMYFCQQSRKVPWTFGGGTKLEIKSSSASTKGPSVFPLAPSSKSTSGGTAALGCLVKDYFPEPVTVSWNSGALTSGVHTFPAVLQSSGLYSLSSVVTVPSSSLGTQTYICNVNHKPSNTKVDKKVRTEPKSSDKTHTCPPCPSGAPELLGGPSVFLFPPKPKDTLMISRTPEVTCVVVDVSHEDPEVKFNWYVDGVEVHNAKTKPREEQYNSTYRVVSVLTVLHQDWLNGKEYKCKVSNKALPAPIEKTISKAKGQPREPQVYTLPPSRDELTKNQVSLTCLVKGFYPSDIAVEWESNGQPENNYKTTPPVLDSDGSFFLYSKLTVDKSRWQQGNVFSCSVMHEALHNHYTQKSLSLSPGK
chain 2: TVAAPSVFIFPPSDEQLKSGTASVVCLLNNFYPREAKVQWKVDNALQSGNSQESVTEQDSKDSTYSLSSTLTLSKADYEKHKVYACEVTHQGLSSPVTKSFNRGERTEPKSSDKTHTCPPCPSGAPELLGGPSVFLFPPKPKDTLMISRTPEVTCVVVDVSHEDPEVKFNWYVDGVEVHNAKTKPREEQYNSTYRVVSVLTVLHQDWLNGKEYKCKVSNKALPAPIEKTISKAKGQPREPQVYTLPPSRDELTKNQVSLTCLVKGFYPSDIAVEWESNGQPENNYKTTPPVLDSDGSFFLYSKLTVDKSRWQQGNVFSCSVMHEALHNHYTQKSLSLSPGK
notes: One 2E12 (anti-CD28) scFv only; also called X0112 + X0113
B5: bivalent anti-CD28 polypeptide heterodimer X0172 (Fc fusion)
chain 1: QVQLKESGPGSVAPSQSLSITCTVSGFSLTGYGVNWVRQPPGKGLEWLGMIWGDGSTDYNSALKSRLSITKDNSKSQVFLKMNSLQTDDTARYYCARDGYSNFHYYVMDYWGQGTSVTVSSGGGGSGGGGSGGGGSGGGGSDIVLTQSPASLAVSLGQRATISCRASESVEYYVTSLMQWYQQKPGQPPKLLISAASNVESGVPARFSGSGSGTDFSLNIHPVEEDDIAMYFCQQSRKVPWTFGGGTKLEIKSSSASTKGPSVFPLAPSSKSTSGGTAALGCLVKDYFPEPVTVSWNSGALTSGVHTFPAVLQSSGLYSLSSVVTVPSSSLGTQTYICNVNHKPSNTKVDKKVRTEPKSSDKTHTCPPCPSGAPELLGGPSVFLFPPKPKDTLMISRTPEVTCVVVDVSHEDPEVKFNWYVDGVEVHNAKTKPREEQYNSTYRVVSVLTVLHQDWLNGKEYKCKVSNKALPAPIEKTISKAKGQPREPQVYTLPPSRDELTKNQVSLTCLVKGFYPSDIAVEWESNGQPENNYKTTPPVLDSDGSFFLYSKLTVDKSRWQQGNVFSCSVMHEALHNHYTQKSLSLSPGKSRTVAAPSVFIFPPSDEQLKSGTASVVCLLNNFYPREAKVQWKVDNALQSGNSQESVTEQDSKDSTYSLSSTLTLSKADYEKHKVYACEVTHQGLSSPVTKSFNRGE
chain 2: TVAAPSVFIFPPSDEQLKSGTASVVCLLNNFYPREAKVQWKVDNALQSGNSQESVTEQDSKDSTYSLSSTLTLSKADYEKHKVYACEVTHQGLSSPVTKSFNRGERTEPKSSDKTHTCPPCPSGAPELLGGPSVFLFPPKPKDTLMISRTPEVTCVVVDVSHEDPEVKFNWYVDGVEVHNAKTKPREEQYNSTYRVVSVLTVLHQDWLNGKEYKCKVSNKALPAPIEKTISKAKGQPREPQVYTLPPSRDELTKNQVSLTCLVKGFYPSDIAVEWESNGQPENNYKTTPPVLDSDGSFFLYSKLTVDKSRWQQGNVFSCSVMHEALHNHYTQKSLSLSPGKSRASTKGPSVFPLAPSSKSTSGGTAALGCLVKDYFPEPVTVSWNSGALTSGVHTFPAVLQSSGLYSLSSVVTVPSSSLGTQTYICNVNHKPSNTKVDKKVNSLFNQEVQIPLTESYSPNSQVQLKESGPGSVAPSQSLSITCTVSGFSLTGYGVNWVRQPPGKGLEWLGMIWGDGSTDYNSALKSRLSITKDNSKSQVFLKMNSLQTDDTARYYCARDGYSNFHYYVMDYWGQGTSVTVSSGGGGSGGGGSGGGGSGGGGSDIVLTQSPASLAVSLGQRATISCRASESVEYYVTSLMQWYQQKPGQPPKLLISAASNVESGVPARFSGSGSGTDFSLNIHPVEEDDIAMYFCQQSRKVPWTFGGGTKLEIK
notes: also called X0130 + X0168

Legend:
CD28 on CD4+ T cells = biological target: T1, CD28 on CD4+ T cells (human, UniProt P10747 19-220); test: binding to CD4+ T cells (FIG. 3; method not described)
T1 construct: whole, on cells

CD19 on cells = biological target: T2, CD19 on cells (UniProt P15391 20-556, limits assumed); test: flow cytometry on Rec1 (CD19+, CD20+) cells, 100 nM to 0.1 nM, goat anti-human IgG-FITC
T2 construct: whole, on cells
T2 sequence (looked up): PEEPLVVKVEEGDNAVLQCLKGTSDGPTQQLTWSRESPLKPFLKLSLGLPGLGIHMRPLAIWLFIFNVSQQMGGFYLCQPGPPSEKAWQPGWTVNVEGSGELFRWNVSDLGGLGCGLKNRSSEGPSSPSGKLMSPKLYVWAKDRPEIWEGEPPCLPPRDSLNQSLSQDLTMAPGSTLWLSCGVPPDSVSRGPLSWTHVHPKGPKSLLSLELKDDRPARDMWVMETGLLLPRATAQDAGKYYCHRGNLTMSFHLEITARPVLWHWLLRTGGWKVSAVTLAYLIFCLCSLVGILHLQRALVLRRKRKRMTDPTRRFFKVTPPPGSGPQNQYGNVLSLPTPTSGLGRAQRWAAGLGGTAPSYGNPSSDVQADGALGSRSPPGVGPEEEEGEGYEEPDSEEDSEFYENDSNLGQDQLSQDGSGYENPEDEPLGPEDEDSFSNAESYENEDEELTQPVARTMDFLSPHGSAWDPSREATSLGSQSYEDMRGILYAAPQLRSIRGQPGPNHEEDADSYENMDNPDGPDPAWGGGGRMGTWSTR
Description: (§1) T-cells were isolated from donor PBMCs using a Pan T-cell Isolation Kit II from Miltenyi Biotec (Bergisch Gladbach, Germany). Non T-cells were separated from PBMCs by being indirectly magnetically labeled with biotin-conjugated monoclonal antibodies and anti-biotin magnetic microbeads. These cells were then depleted by retaining them in a column surrounded by a magnetic field. The T-cells were not retained in the column and were collected in the flow through.
(§2) The cells were washed three times and then incubated with goat anti-human IgG-FITC (1:200 dilution) for another 30 minutes at 4° C. The cells were then washed again three times, fixed in 1% paraformaldehyde and read on a FACS-Calibur instrument.

CD20 on cells = biological target: T3, CD20 on cells (UniProt P11836 1-297, limits assumed); test: as above
T3 construct: whole, on cells
T3 sequence (looked up): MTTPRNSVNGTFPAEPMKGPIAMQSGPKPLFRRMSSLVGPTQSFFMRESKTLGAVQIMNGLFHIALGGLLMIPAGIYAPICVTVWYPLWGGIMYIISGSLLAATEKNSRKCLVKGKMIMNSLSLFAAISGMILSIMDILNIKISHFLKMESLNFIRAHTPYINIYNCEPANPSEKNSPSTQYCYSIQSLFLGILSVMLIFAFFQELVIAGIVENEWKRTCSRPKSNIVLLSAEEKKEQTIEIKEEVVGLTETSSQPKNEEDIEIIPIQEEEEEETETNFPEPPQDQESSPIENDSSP
Description: as §1, §2

Binder	binding result (CD28 on CD4+ T cells)	further results
B1	binds	–
B2	–	binding result (CD19 on cells): binds
B3	–	binding result (CD20 on cells): binds
B4	binds	–
B5	binds	–
